Reference: the supplement of paper PMC7877785
± gives the uncertainty stated by the source.

Experiment: self-splicing fitness, log relative to wild type (ln ratio); higher = more splicing; Tetrahymena group I intron in knt gene, E. coli kanamycin selection, DiMSum; sequences stand for … in CUCUCU…GGAGGGAAAAGUUAUCAGGCAUGCACCUGGUAGCUAGUCUUUAAACCAAUAGAUUGCAUCGGUUUAAAAGGCAAGACCGUCAAAUUGCGGGAAAGGGGUCAACAGCCGUUCAGUACCAAGUCUCAGGGGAAACUUUGAGAUGGCCUUGCAAAGGGUAUGGUAAUAAGCUGACGGACAUGGUCCUAACCACGCAGCCAAGUCCUAAGUCAACAGAUCUUCUGUUGAUAUGGAUGCAGUUCACAGACUAAAUGUCGGUCGGGGAAGAUGUAUUCUUCUCAUAAGAUAUAGUCGGACCUCUCCUUAAUGGGAGCUAGCGGAUGAAGUGAUGCAACACUGGAGCCGCUGGGAACUAAUUUGUAUGCGAAAGUAUAUUGAUUAGUUUUGGAGUACUCGUGGUCG
Summary of the method: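 Pooled colonies went to amplicon sequencing on an Illumina HiSeq 2500 after six replicate transformations. The plates were LB agar with 100 μg/mL carbenicillin, 50 μM IPTG and 0.2% rhamnose, with or without 25 μg/mL kanamycin, incubated overnight at 37°C or 30°C. The E. coli BL21(DE3) library had all eight P1ex-region intron nucleotides randomised, the intron placed in the knt kanamycin-resistance gene on pET-22b(+). DiMSum fitness is the error-weighted combination of replicate fold changes, kanamycin against none, normalised to wild type.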

Sequence	self-splicing fitness (ln) (30 °C)	self-splicing fitness (ln) (37 °C)
AACCAGCAAUAUUACGUUCA	-0.752 ± 0.06	-0.495 ± 0.065
AACCAGCAAUAUUACGUUCU	-1.15 ± 0.043	-0.678 ± 0.053
AACCAGCAAUAUUACGUUGU	-2.68 ± 0.077	-2.38 ± 0.1
AACGAGCAAUAUUACGAACA	-3.15 ± 0.28	-1.9 ± 0.16
AACGAGCAAUAUUACGAAGA	-3.13 ± 0.33	-1.82 ± 0.44
AACGAGCAAUAUUACGACUG	-2.12 ± 0.16	-0.348 ± 0.15
AACGAGCAAUAUUACGAGCU	-4.74 ± 0.36	-3.22 ± 0.27
AACGAGCAAUAUUACGAUAA	-3.76 ± 0.2	-2.94 ± 0.21
AACGAGCAAUAUUACGAUCA	-2.1 ± 0.21	-1.41 ± 0.21
AACGAGCAAUAUUACGAUGC	-2.93 ± 0.2	-1.52 ± 0.26
AACGAGCAAUAUUACGAUUU	-0.71 ± 0.067	-0.294 ± 0.082
AACGAGCAAUAUUACGCAAA	–	-1.9 ± 0.35
AACGAGCAAUAUUACGCGCU	-3.43 ± 0.2	-0.902 ± 0.14
AACGAGCAAUAUUACGCGGA	-2.97 ± 0.2	-2.01 ± 0.2
AACGAGCAAUAUUACGCGGC	-2.71 ± 0.33	-2.15 ± 0.33
AACGAGCAAUAUUACGCGGU	-3.29 ± 0.26	-1.62 ± 0.15
AACGAGCAAUAUUACGCUCU	-5.11 ± 0.41	-1.81 ± 0.14
AACGAGCAAUAUUACGCUGA	-1.64 ± 0.27	-2.29 ± 0.39
AACGAGCAAUAUUACGCUUG	-2.67 ± 0.17	-2.99 ± 0.29
AACGAGCAAUAUUACGGCGG	-2.67 ± 0.14	-1.13 ± 0.13
AACGAGCAAUAUUACGGCUU	-0.938 ± 0.076	-0.225 ± 0.1
AACGAGCAAUAUUACGGGAC	-3.37 ± 0.22	-3.61 ± 0.46
AACGAGCAAUAUUACGGGGU	-3.26 ± 0.35	–
AACGAGCAAUAUUACGGUAA	-4.2 ± 0.42	-2.47 ± 0.28

Sequence	self-splicing fitness (ln) (30 °C)	self-splicing fitness (ln) (37 °C)
AACGAGCAAUAUUACGGUAG	-3.73 ± 0.15	-3.17 ± 0.18
AACGAGCAAUAUUACGGUGU	-3.36 ± 0.17	-1.81 ± 0.18
AACGAGCAAUAUUACGUAAG	-4.14 ± 0.3	-0.595 ± 0.14
AACGAGCAAUAUUACGUAGA	-2.99 ± 0.12	-2.43 ± 0.17
AACGAGCAAUAUUACGUCUC	-3.67 ± 0.29	-3.03 ± 0.27
AACGAGCAAUAUUACGUGUA	-2.55 ± 0.11	-3.2 ± 0.14
AACGAGCAAUAUUACGUUAG	-3.71 ± 0.33	-3.11 ± 0.3
AACGAGCAAUAUUACGUUUU	-3.9 ± 0.14	-2.79 ± 0.14
AACUAGCAAUAUUACGAAUU	-1.49 ± 0.076	-0.396 ± 0.097
AACUAGCAAUAUUACGACCA	-0.23 ± 0.079	0.118 ± 0.1
AACUAGCAAUAUUACGACCG	-0.914 ± 0.12	0.134 ± 0.15
AACUAGCAAUAUUACGACGG	-2.21 ± 0.14	-0.86 ± 0.21
AACUAGCAAUAUUACGACUU	-0.0929 ± 0.069	0.236 ± 0.09
AACUAGCAAUAUUACGAUAG	-3.19 ± 0.19	-1.77 ± 0.13
AACUAGCAAUAUUACGCACC	0.625 ± 0.17	-1.48 ± 0.25
AACUAGCAAUAUUACGCAUG	-1.25 ± 0.083	-0.11 ± 0.086
AACUAGCAAUAUUACGCCCG	-1.11 ± 0.18	-0.346 ± 0.23
AACUAGCAAUAUUACGCCGU	-1.62 ± 0.11	-0.221 ± 0.14
AACUAGCAAUAUUACGCCUA	-0.593 ± 0.11	-0.206 ± 0.11
AACUAGCAAUAUUACGCGCC	-1.34 ± 0.12	-0.314 ± 0.12
AACUAGCAAUAUUACGCGGC	-3.01 ± 0.19	-3.27 ± 0.22
AACUAGCAAUAUUACGCUGG	-3.28 ± 0.4	-2.34 ± 0.22
AACUAGCAAUAUUACGCUUC	-3.74 ± 0.33	-1.68 ± 0.2
AACUAGCAAUAUUACGGAUC	-1.78 ± 0.17	-1.37 ± 0.12
